# Laboratory results published in patent publication US9144594B2, “Cathepsin L mediated diseases and associated methods and products” (University of Miami, priority 2005, dated 2015).
# Legend:
# [1] = test system: LPS induced mouse proteinuria model; assay: LPS induced mouse proteinuria model, protein in urine (prevention and reversal by dynamin gene delivery); assay type: in vivo; conditions: 2xLPS
# Method: Next, it was examined whether gene transfer of dynR725A and dynL356Q, G358V was able to protect from LPS induced changes of podocyte FP and thus proteinuria (FIGS. 6A-B); (Table 2B). […] Whereas the application of wildtype dynamin was unable to protect from LPS induced podocyte FP effacement (data not shown) and proteinuria (0.63 mg/ml after 24 hours, p<0.05 and 1.18 mg/ml after 48 hours, p<0.04); table 2B, the co-administration of R725A together with LPS completely abolished the development of proteinuria after 24 hours (0.20 mg/ml). Podocyte FPs remained normal at this timepoint (FIG. 6B). The decline of R725A expression in podocytes was then associated with the development of proteinuria (1.25 mg/ml, 48 h). At this time point, there was noticeable podocyte FP effacement. The application of the cathepsin L resistant dynamin mutant L356Q, G358V together with LPS conferred a partial protection from proteinuria (0.47 mg/ml, P<0.05). This protection was associated with normal appearing podocyte FP (FIG. 6C). Although this protection was not as strong as the one provided by dynR725A, it was prolonged and was still present even after the second dose of LPS ([…], P<0.04). This observation argues that lower expression levels of dynL356Q, G358V are required to protect from LPS induced FP effacement but the presence of dynR725A has the most powerful protection.
# Another set of experiments was carried out to study whether dynR725A and dynL356Q, G358V are also useful once there is already established podocyte damage and proteinuria (reversal experiments), (FIGS. 6C, D); (Table 2C). First LPS was injected in mice at 0 and 24 hours and the course of urinary protein loss was documented. On the peak phase of proteinuria at 48 hours after the first LPS injection, either delivery solution (control), dynR725A or dynL356Q, G358V dynamin mutants were transferred and the morphology of podocyte FP was analyzed and the degree of proteinuria was determined 10 hours later when there was strong expression of the transferred gene in podocytes. […] A dramatic reformation of podocyte FPs was also observed (FIG. 6C). The same observation was true for L356Q, G358V (FIG. 6D) which was able to reduce proteinuria from 1.20 mg/ml to 0.71 mg/ml). From the in vitro data it was determined that R725A starts to self assemble into higher order structures in the LPS setting which render dynamin assembly domain protected from cathepsin L cleavage. […] In addition, dominant activating dynR725A proves useful because despite causing podocyte damage in wildtype mice, it can resist cathepsin L cleavage by self assembly in the LPS setting and have strong activity by impairment in its GTP hydrolysis.
# If dynamin is a target of CatL, then dynL356Q and dynR725A, which are resistant to CatL cleavage, might protect kidneys from LPS. In control mice, two injections of LPS led to FP effacement (FIG. 21C) and a large increase in proteinuria (FIG. 21E, Con).
# Next it was examined whether dynL356Q and dynR725A can reverse already established proteinuria. LPS was injected into mice at 0 and 24 hours. At the peak of proteinuria at 48 hours, mice were injected with dynWT, dynL356Q, or dynR725A, and the degree of proteinuria was analyzed 12 hours post injection. […] The rescue could be achieved with both podocin and CMV-driven protein expression.
# All animal studies were approved by the MGH Subcommittee for Research Animal Care. C57BL6 mice were obtained from Jackson Laboratory (Bar Harbor, Me.). CatL−/− mice are in a pure C57BL6 background (Nakagawa et al., Science 280, 450-453 (1998)). LPS induced mouse proteinuria model was utilized as previously described (Reiser et al., J Clin Invest 113, 1390-1397 (2004)). Rat PAN nephrosis model was induced by a single intravenous injection of PAN (180 mg/kg body wt; Sigma-Aldrich, St. Louis, Mo.) (Kim et al., Am J Physiol Renal Physiol 286, F922-935 (2004)). […]
# [2] = test system: mice; assay: Protein in urine after in vivo gene delivery of dynamin mutants into healthy mice (Bradford); set-up: species or system mouse; conditions: Table 5 Basic Phenotype, podocin-driven vectors
# Method: Next, the level of urinary protein loss following gene delivery of dynamin mutants was examined (Table 2). […] The expression of K44A was associated with severe proteinuria (1.18 mg/ml) at peak gene expression time of 10 hours post injection. The reduction in gene expression was paralleled by a reduction in proteinuria (0.77 mg/ml). Gene transfer of dynR725A caused an increase in proteinuria (0.58 mg/ml). Although this was not a significant increase, it is probable that it is a consequence of the partial podocyte FP effacement seen after gene transfer of dynR725A, and due to increase in the stress fibers formation observed in cultured podocytes.
# To explore whether functional dynamin is required for the maintenance of FP morphology in healthy kidneys, it was examined whether expression of dominant negative dynK44A disrupts podocyte function. […] In contrast, podocin driven expression of dynK44A, the dynamin mutant that cannot bind GTP, caused FP effacement (FIG. 21B) and proteinuria (1.1±0.26 mg/ml) at the peak of gene expression […] after gene delivery (FIGS. 21D and 25C). […] In other words, tight regulation of the life-time of the GTP-bound form of dynamin appears to be required for normal FP morphology and ultrafiltration.
# CatL plasmids encoding short and long CatL (Goulet et al., Biol Chem 387, 1285-1293 (2004)), Dyn1 plasmids (pcDNA-driven) or p2.5 Podocin-driven (Moeller et al., Genesis 35, 39-42 (2003)) were introduced into mice (n>10, each construct) using the TransIT in vivo gene delivery system according to the manufacturer's instruction (Mirus Bio Corporation, Madison, Wis.). 10 and 24 h after gene delivery, proteinuria was assessed by Multistix 8 SG strips (Bayer Corporation, Elkhart, Ind.), and Bradford protein assay (Sigma, Saint Louis, Mo.). From the same urines the protein creatinine ratio was determined with Albuwell M and Creatinine Companion protein creatinine ELISA kits (Exocell Inc., Philadelphia, Pa.).
Molecule,"Protein in the urine ([1]; Table 5 Prevention, t = 0) [mg/mL]","Protein in the urine ([1]; Table 5 Prevention, t = 24 h)","Protein in the urine ([1]; Table 5 Prevention, t = 48 h)","Protein in the urine ([1]; Table 5 Reversal, t = 0) [mg/mL]","Protein in the urine ([1]; Table 5 Reversal, t = 48 h) [mg/mL]","Protein in the urine ([1]; Table 5 Reversal, t = 58 h)",Protein in the urine ([2]; t = 0) [mg/mL],Protein in the urine ([2]; t = 14 h),Protein in the urine ([2]; t = 24 h)
"WT (CMV): CMV promoter-driven wild type dyn1 vector, gene delivery",0.28 ± 0.07,0.63 ± 0.12 (1.3.2 × 10^−3) mg/ml,1.18 ± 0.23 (7.6 × 10^−5) mg/ml,0.30 ± 0.11,0.17 ± 0.20,1.10 ± 0.18 mg/mL,–,–,–
"R725A (CMV): CMV promoter-driven dynR725A vector, gene delivery (protein, UniProt Q05193 1-864, looked up, variant R725A, expressed from CMV vector, CMV promoter-driven dynR725A vector, gene delivery) Dynamin-1: MGNRGMEDLIPLVNRLQDAFSAIGQNADLDLPQIAVVGGQSAGKSSVLENFVGRDFLPRGSGIVTRRPLVLQLVNATTEYAEFLHCKGKKFTDFEEVRLEIEAETDRVTGTNKGISPVPINLRVYSPHVLNLTLVDLPGMTKVPVGDQPPDIEFQIRDMLMQFVTKENCLILAVSPANSDLANSDALKVAKEVDPQGQRTIGVITKLDLMDEGTDARDVLENKLLPLRRGYIGVVNRSQKDIDGKKDITAALAAERKFFLSHPSYRHLADRMGTPYLQKVLNQQLTNHIRDTLPGLRNKLQSQLLSIEKEVEEYKNFRPDDPARKTKALLQMVQQFAVDFEKRIEGSGDQIDTYELSGGARINRIFHERFPFELVKMEFDEKELRREISYAIKNIHGIRTGLFTPDMAFETIVKKQVKKIREPCLKCVDMVISELISTVRQCTKKLQQYPRLREEMERIVTTHIREREGRTKEQVMLLIDIELAYMNTNHEDFIGFANAQQRSNQMNKKKTSGNQDEILVIRKGWLTINNIGIMKGGSKEYWFVLTAENLSWYKDDEEKEKKYMLSVDNLKLRDVEKGFMSSKHIFALFNTEQRNVYKDYRQLELACETQEEVDSWKASFLRAGVYPERVGDKEKASETEENGSDSFMHSMDPQLERQVETIRNLVDSYMAIVNKTVRDLMPKTIMHLMINNTKEFIFSELLANLYSCGDQNTLMEESAEQAQRADEMLRMYHALKEALSIIGDINTTTVSTPMPPPVDDSWLQVQSVPAGRRSPTSSPTPQRRAPAVPPARPGSRGPAPGPPPAGSALGGAPPVPSRPGASPDPFGPPPQVPSRPNRAPPGVPSRSGQASPSRPESPRPPFDL",0.17 ± 0.08,0.20 ± 0.05 mg/mL,1.25 ± 0.29 (5.0 × 10^−6) mg/ml,0.28 ± 0.10,1.15 ± 0.17,0.38 ± 0.23 (1.8 × 10^−3) mg/ml,–,–,–
"WT (podo): podocin promoter-driven wild type dyn1 vector, gene delivery (protein, UniProt Q05193 1-864, looked up, podocin promoter vector, podocin promoter-driven wild type dyn1 vector, gene delivery) Dynamin-1: MGNRGMEDLIPLVNRLQDAFSAIGQNADLDLPQIAVVGGQSAGKSSVLENFVGRDFLPRGSGIVTRRPLVLQLVNATTEYAEFLHCKGKKFTDFEEVRLEIEAETDRVTGTNKGISPVPINLRVYSPHVLNLTLVDLPGMTKVPVGDQPPDIEFQIRDMLMQFVTKENCLILAVSPANSDLANSDALKVAKEVDPQGQRTIGVITKLDLMDEGTDARDVLENKLLPLRRGYIGVVNRSQKDIDGKKDITAALAAERKFFLSHPSYRHLADRMGTPYLQKVLNQQLTNHIRDTLPGLRNKLQSQLLSIEKEVEEYKNFRPDDPARKTKALLQMVQQFAVDFEKRIEGSGDQIDTYELSGGARINRIFHERFPFELVKMEFDEKELRREISYAIKNIHGIRTGLFTPDMAFETIVKKQVKKIREPCLKCVDMVISELISTVRQCTKKLQQYPRLREEMERIVTTHIREREGRTKEQVMLLIDIELAYMNTNHEDFIGFANAQQRSNQMNKKKTSGNQDEILVIRKGWLTINNIGIMKGGSKEYWFVLTAENLSWYKDDEEKEKKYMLSVDNLKLRDVEKGFMSSKHIFALFNTEQRNVYKDYRQLELACETQEEVDSWKASFLRAGVYPERVGDKEKASETEENGSDSFMHSMDPQLERQVETIRNLVDSYMAIVNKTVRDLMPKTIMHLMINNTKEFIFSELLANLYSCGDQNTLMEESAEQAQRRDEMLRMYHALKEALSIIGDINTTTVSTPMPPPVDDSWLQVQSVPAGRRSPTSSPTPQRRAPAVPPARPGSRGPAPGPPPAGSALGGAPPVPSRPGASPDPFGPPPQVPSRPNRAPPGVPSRSGQASPSRPESPRPPFDL",–,–,–,–,–,–,0.28 ± 0.06,0.54 ± 0.13 (4.2 × 10^−3) mg/ml,0.46 ± 0.16 (4.6 × 10^−2) mg/ml
"K44A (podo): podocin promoter-driven dynK44A vector, gene delivery (protein, UniProt Q05193 1-864, looked up, variant K44A, podocin promoter vector, podocin promoter-driven dynK44A vector, gene delivery) Dynamin-1: MGNRGMEDLIPLVNRLQDAFSAIGQNADLDLPQIAVVGGQSAGASSVLENFVGRDFLPRGSGIVTRRPLVLQLVNATTEYAEFLHCKGKKFTDFEEVRLEIEAETDRVTGTNKGISPVPINLRVYSPHVLNLTLVDLPGMTKVPVGDQPPDIEFQIRDMLMQFVTKENCLILAVSPANSDLANSDALKVAKEVDPQGQRTIGVITKLDLMDEGTDARDVLENKLLPLRRGYIGVVNRSQKDIDGKKDITAALAAERKFFLSHPSYRHLADRMGTPYLQKVLNQQLTNHIRDTLPGLRNKLQSQLLSIEKEVEEYKNFRPDDPARKTKALLQMVQQFAVDFEKRIEGSGDQIDTYELSGGARINRIFHERFPFELVKMEFDEKELRREISYAIKNIHGIRTGLFTPDMAFETIVKKQVKKIREPCLKCVDMVISELISTVRQCTKKLQQYPRLREEMERIVTTHIREREGRTKEQVMLLIDIELAYMNTNHEDFIGFANAQQRSNQMNKKKTSGNQDEILVIRKGWLTINNIGIMKGGSKEYWFVLTAENLSWYKDDEEKEKKYMLSVDNLKLRDVEKGFMSSKHIFALFNTEQRNVYKDYRQLELACETQEEVDSWKASFLRAGVYPERVGDKEKASETEENGSDSFMHSMDPQLERQVETIRNLVDSYMAIVNKTVRDLMPKTIMHLMINNTKEFIFSELLANLYSCGDQNTLMEESAEQAQRRDEMLRMYHALKEALSIIGDINTTTVSTPMPPPVDDSWLQVQSVPAGRRSPTSSPTPQRRAPAVPPARPGSRGPAPGPPPAGSALGGAPPVPSRPGASPDPFGPPPQVPSRPNRAPPGVPSRSGQASPSRPESPRPPFDL",–,–,–,–,–,–,0.24 ± 0.08,1.09 ± 0.27 (3.0 × 10^−5) mg/ml,0.42 ± 0.16 (5.2 × 10^−3) mg/ml
